Test results from publication PMC3430514.
Read-outs that look alike come from different tables or passages of the source.

T1: RIG-I full-length (human, UniProt O95786 1-925)
T1 sequence: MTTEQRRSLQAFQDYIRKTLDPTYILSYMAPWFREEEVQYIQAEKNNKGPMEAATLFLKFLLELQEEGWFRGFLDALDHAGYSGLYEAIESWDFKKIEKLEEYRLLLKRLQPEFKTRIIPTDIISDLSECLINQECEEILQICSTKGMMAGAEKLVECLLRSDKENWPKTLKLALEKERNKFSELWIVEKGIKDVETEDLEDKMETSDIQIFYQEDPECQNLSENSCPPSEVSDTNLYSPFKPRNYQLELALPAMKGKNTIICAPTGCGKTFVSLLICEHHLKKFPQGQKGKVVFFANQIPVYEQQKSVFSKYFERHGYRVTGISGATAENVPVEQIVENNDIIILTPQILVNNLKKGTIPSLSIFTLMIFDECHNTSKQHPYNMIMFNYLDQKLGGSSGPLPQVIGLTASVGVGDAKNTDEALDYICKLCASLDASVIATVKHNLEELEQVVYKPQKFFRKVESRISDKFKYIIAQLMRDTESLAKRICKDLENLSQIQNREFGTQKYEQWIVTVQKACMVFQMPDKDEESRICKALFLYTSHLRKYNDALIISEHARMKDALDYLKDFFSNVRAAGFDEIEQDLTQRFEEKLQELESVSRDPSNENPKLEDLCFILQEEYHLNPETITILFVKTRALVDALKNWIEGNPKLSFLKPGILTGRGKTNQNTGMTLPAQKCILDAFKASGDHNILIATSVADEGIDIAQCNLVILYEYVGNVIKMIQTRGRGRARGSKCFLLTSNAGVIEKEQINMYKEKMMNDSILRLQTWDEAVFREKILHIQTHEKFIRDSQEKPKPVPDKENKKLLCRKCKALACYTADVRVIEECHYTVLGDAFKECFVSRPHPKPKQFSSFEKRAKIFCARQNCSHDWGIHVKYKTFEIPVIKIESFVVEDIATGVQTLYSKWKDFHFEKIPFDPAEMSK

T2: RIG-I RD (repressor domain) (human, UniProt O95786 795-925)
T2 sequence: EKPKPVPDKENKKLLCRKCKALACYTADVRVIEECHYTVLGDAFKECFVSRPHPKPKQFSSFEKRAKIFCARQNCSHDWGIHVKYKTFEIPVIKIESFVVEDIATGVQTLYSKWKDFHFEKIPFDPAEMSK

T3: RIG-I helicase domain (human, UniProt O95786 232-794)
T3 sequence: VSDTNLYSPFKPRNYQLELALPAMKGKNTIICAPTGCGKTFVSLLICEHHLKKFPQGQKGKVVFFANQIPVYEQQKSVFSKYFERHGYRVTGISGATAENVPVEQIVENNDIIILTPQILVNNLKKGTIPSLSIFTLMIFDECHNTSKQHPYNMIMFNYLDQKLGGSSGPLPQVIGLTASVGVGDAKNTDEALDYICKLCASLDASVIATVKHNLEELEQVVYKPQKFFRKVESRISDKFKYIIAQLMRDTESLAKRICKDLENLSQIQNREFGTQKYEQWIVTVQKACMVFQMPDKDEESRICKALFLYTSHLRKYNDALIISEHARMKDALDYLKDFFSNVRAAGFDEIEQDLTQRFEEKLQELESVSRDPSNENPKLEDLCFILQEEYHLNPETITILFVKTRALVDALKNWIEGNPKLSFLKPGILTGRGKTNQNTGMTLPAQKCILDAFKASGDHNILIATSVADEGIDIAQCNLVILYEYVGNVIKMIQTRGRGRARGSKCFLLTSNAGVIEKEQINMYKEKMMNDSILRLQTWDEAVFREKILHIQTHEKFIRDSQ

T4: RIG-I helicase-RD (human, UniProt O95786 232-925)
T4 sequence: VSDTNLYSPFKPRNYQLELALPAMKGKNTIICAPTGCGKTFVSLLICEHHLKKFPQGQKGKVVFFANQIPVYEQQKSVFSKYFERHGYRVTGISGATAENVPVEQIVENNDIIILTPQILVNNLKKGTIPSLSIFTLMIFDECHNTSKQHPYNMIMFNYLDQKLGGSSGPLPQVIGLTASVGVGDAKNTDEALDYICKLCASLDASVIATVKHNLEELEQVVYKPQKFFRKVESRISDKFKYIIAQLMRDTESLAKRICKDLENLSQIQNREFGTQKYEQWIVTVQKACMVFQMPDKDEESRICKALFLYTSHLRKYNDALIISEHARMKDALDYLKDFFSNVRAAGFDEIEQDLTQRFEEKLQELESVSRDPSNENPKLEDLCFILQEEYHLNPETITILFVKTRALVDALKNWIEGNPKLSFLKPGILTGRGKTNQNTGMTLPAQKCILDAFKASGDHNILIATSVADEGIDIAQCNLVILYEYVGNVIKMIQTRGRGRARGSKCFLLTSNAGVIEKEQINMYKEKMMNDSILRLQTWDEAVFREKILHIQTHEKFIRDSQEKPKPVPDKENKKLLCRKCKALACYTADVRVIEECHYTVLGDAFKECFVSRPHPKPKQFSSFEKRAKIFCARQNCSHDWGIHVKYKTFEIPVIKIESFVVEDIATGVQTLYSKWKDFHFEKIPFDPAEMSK

B1: 14bp dsRNA-F (dsRNA)
RNA 1: GGAGAGAACCGCCU
RNA 2: AGGCGGUUCUCUCC
modifications: 5'-OH
B2: 14bp pal dsRNA (dsRNA)
RNA 1: CGACGCUAGCGUCG
RNA 2: CGACGCUAGCGUCG
modifications: 5-iodouridine derivative also crystallized

Experiments:
RIG-I full-length = molecular target: T1, RIG-I full-length; experiment: fluorescence anisotropy
[1] = molecular target: T2, RIG-I RD (repressor domain); experiment: fluorescence anisotropy
RIG-I helicase domain [2] = molecular target: T3, RIG-I helicase domain; experiment: fluorescence anisotropy
RIG-I helicase domain [3] = molecular target: T3, RIG-I helicase domain; experiment: fluorescence anisotropy; remark: listed apart in the source
RIG-I helicase-RD = molecular target: T4, RIG-I helicase-RD; experiment: X-ray crystallography

Binder	Kd (RIG-I full-length)	Kd [1]	Kd (RIG-I helicase domain [2])	Kd (RIG-I helicase domain [3])	binding result (RIG-I helicase-RD)
B1	1.2 nM	2.6 ± 1.2 nM	436 ± 121 nM	1300 nM	
B2					binds
